Data taken from patent US20030148956A1 (PROCTER AND GAMBLE, published 2003).

T1: corticotropin releasing factor 2 receptor
T1 sequence (Q13324 whole entry, species assumed, looked up): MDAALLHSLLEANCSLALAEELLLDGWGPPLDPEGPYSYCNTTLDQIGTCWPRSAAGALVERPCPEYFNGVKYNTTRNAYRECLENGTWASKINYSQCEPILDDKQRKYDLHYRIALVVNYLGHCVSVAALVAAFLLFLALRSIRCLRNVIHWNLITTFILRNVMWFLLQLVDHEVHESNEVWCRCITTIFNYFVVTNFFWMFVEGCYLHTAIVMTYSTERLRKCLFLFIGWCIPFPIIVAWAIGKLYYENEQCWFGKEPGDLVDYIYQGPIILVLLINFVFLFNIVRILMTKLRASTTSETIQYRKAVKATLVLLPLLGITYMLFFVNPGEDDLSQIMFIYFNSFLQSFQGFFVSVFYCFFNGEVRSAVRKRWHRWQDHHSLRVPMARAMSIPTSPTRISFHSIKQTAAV


Biological target: T1, corticotropin releasing factor 2 …
Assay: cell-based or functional assay

CRF2R EC50	CRF2R Emax %	Binder
16.7 nM	100%	ZGPPISIDLPLHLLRKMIEIEKQEKEKQQATTNARLLDTV (C-terminal amide) [SEQ ID NO 238]
38.8 nM	100%	ZGPPISIDLPLQLLRKMIEIEKQEKEKQQATTNARLLDTV (C-terminal amide) [SEQ ID NO 246]
16.8 nM	100%	ZGPPISIDLPLYLLRKMIEIEKQEKEKQQATTNARLLDRV (C-terminal amide) [SEQ ID NO 243]
13.2 nM	100%	ZGPPISIDLPLHLLRKMIEIEKQEKEKQQATTNARLLDRV (C-terminal amide) [SEQ ID NO 239]
29 nM	94%	ZGPPISIDLPLYLLRKMIEIEKQEKEKQQATTNARLLDTV (C-terminal amide) [SEQ ID NO 242]
18.8 nM	100%	ZGPPISIDLPLQLLEKMIEIEKQEKEKQQATTNARLLDRV (C-terminal amide) [SEQ ID NO 247]
7.8 nM	98%	ZGPPISIDLPHFLLRKMIEIEKQEKEKQQAANNRLLLDTI (C-terminal amide) [SEQ ID NO 219]
26.9 nM	100%	ZGPPISIDLPQYLLRKMIEIEKQEKEKQQAANNALLLDTI (C-terminal amide) [SEQ ID NO 224]
7.1 nM	100%	ZGPPISIDLPFHLLRKMIEIEKQEKEKQQAANNALLLDTI (C-terminal amide) [SEQ ID NO 228]
45.3 nM	100%	ZGPPISIDLPTYLLRKMIEIEKQEKEKQQAANNALLLDTI (C-terminal amide) [SEQ ID NO 232]
7.5 nM	93%	ZGPPISIDLPLYLLRKMIEIEKQEKEKQQAANNALLLATI (C-terminal amide) [SEQ ID NO 245]
10.3 nM	100%	ZGPPISIDLPFHLLRKMIEIEKQEKEKQQAANNALLLATI (C-terminal amide) [SEQ ID NO 229]
22 nM	100%	ZGPPISIDLPLHLLRKMIEIEKQEKEKQQAANNALLLDTI (C-terminal amide) [SEQ ID NO 240]
8.8 nM	98%	ZGPPISIDLPLYLLRKMIEIEKQEKEKQQAANNALLLDTI (C-terminal amide) [SEQ ID NO 244]

Biological target: corticotropin releasing factor 1 receptor
Assay: cell-based or functional assay

CRF1R EC50	CRF1R Emax %	Binder
753 nM	88%	ZGPPISIDLPLHLLRKMIEIEKQEKEKQQATTNARLLDTV (C-terminal amide) [SEQ ID NO 238]
1000 nM	33%	ZGPPISIDLPLQLLRKMIEIEKQEKEKQQATTNARLLDTV (C-terminal amide) [SEQ ID NO 246]
440 nM	96%	ZGPPISIDLPLYLLRKMIEIEKQEKEKQQATTNARLLDRV (C-terminal amide) [SEQ ID NO 243]
587 nM	80%	ZGPPISIDLPLHLLRKMIEIEKQEKEKQQATTNARLLDRV (C-terminal amide) [SEQ ID NO 239]
358 nM	99%	ZGPPISIDLPLYLLRKMIEIEKQEKEKQQATTNARLLDTV (C-terminal amide) [SEQ ID NO 242]
1000 nM	34%	ZGPPISIDLPLQLLEKMIEIEKQEKEKQQATTNARLLDRV (C-terminal amide) [SEQ ID NO 247]
80.9 nM	100%	ZGPPISIDLPHFLLRKMIEIEKQEKEKQQAANNRLLLDTI (C-terminal amide) [SEQ ID NO 219]
1000 nM	27%	ZGPPISIDLPQYLLRKMIEIEKQEKEKQQAANNALLLDTI (C-terminal amide) [SEQ ID NO 224]
276 nM	100%	ZGPPISIDLPFHLLRKMIEIEKQEKEKQQAANNALLLDTI (C-terminal amide) [SEQ ID NO 228]
1000 nM	7%	ZGPPISIDLPTYLLRKMIEIEKQEKEKQQAANNALLLDTI (C-terminal amide) [SEQ ID NO 232]
381 nM	100%	ZGPPISIDLPLYLLRKMIEIEKQEKEKQQAANNALLLATI (C-terminal amide) [SEQ ID NO 245]
298 nM	100%	ZGPPISIDLPFHLLRKMIEIEKQEKEKQQAANNALLLATI (C-terminal amide) [SEQ ID NO 229]
915 nM	80%	ZGPPISIDLPLHLLRKMIEIEKQEKEKQQAANNALLLDTI (C-terminal amide) [SEQ ID NO 240]
300 nM	100%	ZGPPISIDLPLYLLRKMIEIEKQEKEKQQAANNALLLDTI (C-terminal amide) [SEQ ID NO 244]
